Measured values as given in patent US20200017851A1.

How the values were obtained:
mesothelin (MSLN) [1] = target: mesothelin (MSLN) (UniProt Q13421); assay: virus binding to Panc-1 cells (MSLN strongly-positive), 4 C, E4 qPCR; reference AdML-5WT (native Ad5 fiber)
mesothelin (MSLN) [2] = target: mesothelin (MSLN) (UniProt Q13421); assay: virus binding to Panc-1 cells (MSLN strongly-positive), 4 C, E4 qPCR; reference AdMG553 (Ad5/Ad3 fiber)

Work on “AdML-VTIN (isolated adenovirus with the VTINRSA (SEQ ID NO:12) motif in the AB-loop of the fiber knob) (from UniProt P11818 1-410; P11818 418-581)” yielded a fold binding ability against AdML-5WT (mesothelin (MSLN) [1]) of 5 fold and a fold binding ability against AdMG553 (mesothelin (MSLN) [2]) of 2 fold.
